According to patent publication US20030099631A1:

T1: DNP-Pro-Cha-Abu-Cys(Me)-His-Ala-Lys(N-Me-Abz)-NH2
T1 sequence: PXXCHAK

B1: human liver-derived metalloprotease transiently expressed in COS-7 cells transfected with pTB1921 (culture supernatant, treated with aminophenyl-mercuric … (protein)
chain: YLLLGRWRKKHLTFRILNLPSTLPPHTARAALRQAFQDWSNVAPLTFQEVQAGAADIRLSFHGRQSSYCSNTFDGPGRVLAHADIPELGSVHFDEDEFWTEGTYRGVNLRIIAAHEVGHALGLGHSRYSQALMAPVYEGYRPHFKLHPDDVAGIQALYGKKSPVIRDEEEEETELPTVPPVPTEPSPMPDPCSSELDAMMLGPRGKTYAFKGDYVWTVSDSGPGPLFRVSALWEGLPGNLDAAVYSPRTQWIHFFKGDKVWRYINFKMSPGFPKKLNRVEPNLDAALYWPLNQKVFLFKGSGYWQWDELARTDFSSYPKPIKGLFTGVPNQPSAAMSWQDGRVYFFKGKVYWRLNQQLRVEKGYPRNISHNWMHCRPRTIDTTPSGGNTTPSGTGITLDTTLSATETTFEY

Assays:
[1] = test system: T1, DNP-Pro-Cha-Abu-Cys(Me)-His-Ala-Lys(N-Me-Abz)-NH2

Row | Molecule | intensity of fluorescence (excitation 365 nm, emission 460 nm) after cleavage of the substrate [1] | casein hydrolyzing activity (PER assay) (casein)
1 | recombinant human liver-derived metalloprotease expressed in Escherichia coli JM109/pNHMB | a fluorescence intensity of 230 | 
2 | B1 |  | casein hydrolyzing activity which was not found in the mock culture supernatant was detected in the culture supernatant of COS-7 cells transfected with pTB1921
